This is an account of results in the DeepSol protein solubility set.

The nature of this data set: soluble on expression in E. coli; label from the status in PepcDB or PDB records.
On to “MAHHHHHHMVENKSKVKDISLAPFGKMQMEISENEMPGLMRIREEYGKDQPLKNAKITGCLHMTVECALLIETLQKLGAQIRWCSCNIYSTADYAAAAVSTLENVTVFAWKNETLEEYWWCVESALTWGDGDDNGPDMIVDDGGDATLLVHKGVEYEKLYEEKNILPDPEKAKNEEERCFLTLLKNSILKNPKKWTNIAKKIIGVSEETTTGVLRLKKMDKQNELLFTAINVNDAVTKQKYDNVYGCRHSLPDGLMRATDFLISGKIVVICGYGDVGKGCASSMKGLGARVYITEIDPICAIQAVMEGFNVVTLDEIVDKGDFFITCTGNVDVIKLEHLLKMKNNAVVGNIGHFDDEIQVNELFNYKGIHIENVKPQVDRITLPNGNKIIVLARGRLLNLGCATGHPAFVMSFSFCNQTFAQLDLWQNKDTNKYENKVYLLPKHLDEKVALYHLKKLNASLTELDDNQCQFLGVNKSGPFKSNEYRY”, for which the “soluble on expression in E. coli” value is “soluble”. Take “MALLHGGQLQQVAKQYNIPPSDWIDVSTGIAPISYPIPIIPLSVWQQLPQQNPDLIAAAQQYYQCSQLMITNGSQAIIKALPALYRQKNAESQDVYLPERGYKEHAHAWKNAGYNLHFYQEFLPEMSEILPNSVLVIINPNNPTGQFFNGQVIAQYQERLKLINGLLVLDEAFIDVVPGNQSYYNQLENSHSLVLRSFGKFFGLAGIRIGFLVANGYWCGAFKELLGPWQINGPAQLIAQHALQDTSWQTRQKDTLTRLRIAQEHMLRQAFPQIILREINGCNLFLTLSFHQQDTAKKLYHLLCQQGVYCRLADEQDTLRFGITTEELLERLTLACRQAYQQLT”: the “soluble on expression in E. coli” value is on record as “not soluble”. As for “MSLSILQRLIQQAKNPRGTIGSSMLCIMNTAHTRLTNWALQKVHIKKDAIILDIGCGGGKTIHTLSKRTPLGKIYGIDYSYQAVKNSIQTNIKDVQKQKVIVQQASVSSIPYHTNFFDLITAFQTHYFWPDVEQDIKEVFRVLQPNGSFLLVAETFKIQYHMEKWKTNEELINLFYKTGFTSVKCYEERGCLCVIGTKEGHHHHHH”, the entry is “not soluble”.

Consider “MSLSDVKVIIMDIDGTLTTSKKIISEKTKKALKKAQELGAVLILASGRPTSGLMDFAKELEMDKNHGLLVSFNGARVVDCETNKILFNETMSIDQGQAVLEHMKKFEVKPMIDKGDYMYVNDVFDNEIQYKGEPFNIIQYESRNNKFKLCEKHDLAAFADYPLNKILTAGEPEYLKKHYKEMMEPFKESLNCMFTADFYFEFTAEGIDKAKALDTVLIPMGYKKEEMIAFGDGHNDISMVKYAGIGVAMDNAVQELKNAADEVTLSNEEDGIAYTLSKYMKGLEGHHHHHH”, for which the “soluble on expression in E. coli” value is “soluble”. As for “ADKLRAACIRIQKTIRGWLLRKRYLCMQRAAITVQRYVRGYQARCYAKFLRRTKAATT”, the entry is “soluble”; as for “MADRLIVKGAREHNLRSVDLDLPRDALIVFTGLSGSGKSSLAFDTIFAEGQRRYVESLSAYARQFLGQMDKPDVDFIEGLSPAVSIDQKSTNRNPRSTVGTITEVYDYLRLLYARAGTPHCPTCGERVARQTPQQIVDQVLAMPEGTRFLVLAPVVRTRKGEFADLFDKLNAQGYSRVRVDGVVHPLTDPPKLKKQEKHDIEVVVDRLTVKAAAKRRLTDSVETALNLADGIVVLEFVDHELGAPHREQRFSEKLACPNGHALAVDDLEPRSFSFNSPYGACPECSGLGIRKEVDPELVVPDPDRTLAQGAVAPWSNGHTAEYFTRMMAGLGEALGFDVDTPWRKLPAKARKAILEGADEQVHVRYRNRYGRTRSYYADFEGVLAFLQRKMSQTESEQMKERYEGFMRDVPCPVCAGTRLKPEILAVTLAGESKGEHGAKSIAEVCELSIADCADFLNALTLGPREQAIAGQVLKEIRSRLGFLLDVGLEYLSLSRAAATLSGGEAQRIRLATQIGSGLVGVLYVLDEPSIGLHQRDNRRLIETLTRLRDLGNTLIVVEHDEDTIEHADWIVDIGPGAGEHGGRIVHSGPYDELLRNKDSITGAYLSGRESIEIPAIRRSVDPRRQLTVVGAREHNLRGIDVSFPLGVLTSVTGVSGSGKSTLVNDILAAVLANRLNGARQVPGRHTRVTGLDYLDKLVRVDQSPIGRTPRSNPATYTGVFDKIRTLFAATTEAKVRGYQPGRFSFNVKGGRCEACTGDGTIKIEMNFLPDVYVPCEVCQGARYNRETLEVHYKGKTVSEVLDMSIEEAAEFFEPIAGVHRYLRTLVDVGLGYVRLGQPAPTLSGGEAQRVKLASELQKRSTGRTVYILDEPTTGLHFDDIRKLLNVINGLVDKGNTVIVIEHNLDVIKTSDWIIDLGPEGGAGGGTVVAQGTPEDVAAVPASYTGKFLAEVVGGGASAATSRSNRRRNVSA”, “soluble”. Consider “MSLTITLRVLGTSVTLLESLRERAEQELGIKLVYQIHDVQTAQRIAVMQPDSYDLYDQWFHNVDFVWPARAIQPIDTRRIALWHEINDLPKRGRLRPTDQPGSGSVPSERLFVQHDGSLGSTVTERISMLPLTHNADSFAYRPERLPEGLSPADESWGWLLDSAWGGRIALQSDAAIGALDAALAVQGAGLAQFNDIGNMSIEEIDLLADVLVRKQQQGHFGAFWSDDEEAAELMLSPTIDIQSLWSPTLVRLHRAGVKYRVAVPKEGYRGWFGGLSLSRYAKGPVLDAAYAYLNWWLSGWPGAVMARQGYYIGNPARSRDHLSAAEWDYWYAGLPAREQLLGSDGLPLIDAGEIRDGGSYEERMGHIAVWNSVMNEHNYLVRRWSDILRASGKSSAKAREGHHHHHH”, for which the “soluble on expression in E. coli” value is recorded as “soluble”. As for “MSLGKLLFVDIGGTLLDYSNEVPRSAVDAIRKARAKGHRVYLSSGRSSAEVTSQLWDIGVDGLIGANGGYVESAQESVFHRRLSGEETRHIVEWLYNRGLEFYLESNNGLYASRGFREASKPVLSRLSEKTDVTVDSMYPDMFWGASLDRDDVNKISYIFNSQEDLDAAREAFPNLEHTTWGGQTGALFGTIGVSVNKKIGVDRLLKYLNADRANTIAFGDSDEDLSLFEASAYGVAMGEATESLKAAADLVTDAVGQDGLRNAFLKLELIDAEGHHHHHH”, the entry is “soluble”; as for “MAHHHHHHMKRDRDDSVVGTPNGKWDVSPHGTLGVEAKEFERNAVRRYVFGLVHLKNEGPKANAVDVSESIVRSFNERFRRIVKIGQGSFGEVYIVFDTVTQTHLTMKRMQLLRGAGRRVMGLCNTTSREMNLLRVLKHVNIVELFDYHVVPDGTLIMLMPVIAYDLVSLIRLWRNGGPRGEPSAGRMPLPTIKCIFRQLLTGLAYLHKERVIHRDLKPTNVMINEKGVVKIIDFGWARFCPARWRGPMTGPPCPVAYRPPEVLLGGEHAVNYDASVDLWCCGCILFEMLSGGKMFINARSEAEAVAGITDWLGSPSSKSTLYYGHSAASLIRFKQNRPSRLAHRCELLHIDRDSVDMLDKMLQLEPKWRMPAEELLRHRWFSSAPVACEPHEISLPEHNMYRWLDSKRPS”, “soluble”; as for “MDMISAFDIFKIGIGPSSSHTVGPMNAGKSFIDRLESSGLLTATSHIVVDLYGSLSLTGKGHATDVAIIMGLAGNSPQDVVIDEIPAFIELVTRSGRLPVTSGAHIVDFPVAKNIIFHPEMLPRHENGMRITAWKGQEELLSKTYYSVGGGFIVEEEHFGLSYDVETPVPYDFHSAGELLKMCDYNGLSISGLMMHNELALRSKAEIDAGFARIWQVMHDGIERGMNTEGVLPGPLNVPRRAVALRRQLVSSDNISNDPMNVIDWINMYALAVSEENAAGGRVVTAPTNGACGIIPAVLAYYDKFRRPVNERSIARYFLAAGAIGALYKMNASISGAEVGCQGEIGVACSMAAAGLTELLGGSPAQVCNAAEIAMEHNLGLTCDPVAGQVQIPCIERNAINAVKAVNAARMAMRRTSAPRVSLDKVIETMYETGKDMNDKYRETSRGGLAIKVVCG”, “soluble”. On to “MSLIQAIKAKIIVTPGHAPIKDSAVIVKNNIIEKIIPSTELKNNYYQIIDLKNSVVLPGFINSHIHLELHWVQKLLEPFKSFPSWLNQIIKLKKNFNNSKIPYWVNKSLNECINSGVTTIGEISSYDGLDYKPILDKKIRAVYFYELTNSTLKNIENKFFQSLIRNKTNPLINFRIFPHSIYSLDTKSLKRILAFAKKHNIKLGMHLSESIDEVKYSKRKRNNFEKEVFPKTSYKPTIETKPTTPLEYLDTLNINRQHITLIHMNNLSQNDFKILTKKEYPVIICPRSNLYLNQKLPNIKFFMNYMKTGLGTDGLSSNLSINFLDEINFLYLNAKKIINNPEEKILSIATIGGAKALGIDNEVGTIEKGKKADIIAFDLLNKNPYLSIIHSKKRNLKMSMINGKIIKLREGHHHHHH”, for which the “soluble on expression in E. coli” value is on record as “soluble”. The same measure for “GPGSMPRYYTPHEVRAHCFEDDAYVSINGKVLDITPLIQMYQGTRYASLLQPLILAAGTDMTHLLDKKTMDFKTCIDPETGFRTYAQPFGRFAHTPTVLPDSSIDLSYEVPWWQDERYVIGQLTRKTRKIRIVNTLNGHEHTLEVCSEETLREIVMTRYLSHNAHALSYTWRRLDSEPRDLDMDKTLDENGVLDESEEFESLGLNADYYIPALHLYYDDDLTEA”: “soluble”.

For “HGTMEVPINRTYSCSKEGAESPKTPACQEAKRVGGTQAMYDWNGINQNPPGDNHQSVVPDGTLCGGGQAKFKGFNLARTDWPTTNIVPDAKGNFEFIYTATMPHATKYFKFYVTRNGWNPNQPLKWSDLEPFGTYNGNPPLDDKQRYHMTMKLPTGKTGRHIIYNVWKRSDSEEAFYSCSDVNFTN”, the “soluble on expression in E. coli” value is listed as “not soluble”.

Consider “MGSDKIHHHHHHKEKSTVAVLPFTVHSADNIDYVKQGISDMLTSRIAVEGKISVASKDLVQEAIKGRTTRDLTPEEMNALGKKLNVDYIVSGSITKIGNSLSIDGKLMDLAAARSTVGIFAQTQGLDEVIPKINDFSQRIVQHITGSTPSDFSSPAMELPAPSSAAAVADKPPQRSRESEIISGMRTSRKGTFTSIINPDFIDAARPLDRKGFWMSQKFPTEFRGMAIGDVNGDKLQEVVVIDRSNLYVYQRKGDDFKLLQKIPGKTHDNYLAVDVADINQNGIMEIFVTNMNRNTLASFVTEWQDGKYIQTAKDLRLFLRVIEPSIAAPQLLGQGFGLDNPFNTPIHEVIWDGKHYRAATRMKIPEGLSVYGLTLDDLGMGGSEKVISLDDYDYIRIYQQTEKPLSRLNVFGGSDELIWKSDEVFGGSNTYVEHAGSTVPGDEVRRTYINLRILTYDINKDGKKELILVKNLSAVGRVLKNVKLFTSSEVYNLEWDGLGLLENWKTRKINGYVADYQFKDIDNDGQNEIVLALVLSTGATLQNRSAFVAYKLSPQQ”, for which the “soluble on expression in E. coli” value was “not soluble”.

Take “MGSDKIHHHHHHMKYKNLFFDLDDTIWAFSRNARDTFEEVYQKYSFDRYFDSFDHYYTLYQRRNTELWLEYGEGKVTKEELNRQRFFYPLQAVGVEDEALAERFSEDFFAIIPTKSGLMPHAKEVLEYLAPQYNLYILSNGFRELQSRKMRSAGVDRYFKKIILSEDLGVLKPRPEIFHFALSATASALRESLMIGDSWEADITGAHGVGMHQAFYNVTERTVFPFQPTYHIHSLKELMNLL”: the “soluble on expression in E. coli” value was “not soluble”. The same measure for “MVHYKVSYFPIRGAGEIARQILAYAGQDFEDNRIPKEEWPAVKPSTPFGQLPLLEVDGKVLAQSHAIARYLARQFGINGKCAWEEAQVNSVADQFKDYLNEVRPYFMVKMGFAEGDLDALAKDVFLPGFKKHYGFFANFLKSAGSGYLVGDSLTFVDLLVAQHTADLLAANAALLDEFPQFKAHQEKVHSNANIKKWLETRPVTPF”: “not soluble”. The same measure for “ATTYNAVVSKSSSDGKTFKTIADAIASAPAGSTPFVILIKNGVYNERLTITRNNLHLKGESRNGAVIAAATAAGTLKSDGSKWGTAGSSTITISAKDFSAQSLTIRNDFDFPANQAKSDSDSSKIKDTQAVALYVTKSGDRAYFKDVSLVGYQATLYVSGGRSFFSDCRISGTVDFIFGDGTALFNNCDLVSRYRADVKSGNVSGYLTAPSTNINQKYGLVITNSRVIRESDSVPAKSYGLGRPWHPTTTFSDGRYADPNAIGQTVFLNTSMDNHIYGWDKMSGKDKNGNTIWFNPEDSRFFEYKSYGAGATVSKDRRQLTDAQAAEYTQSKVLGDWTPTLP”: “soluble”.
